Assay results as given in patent US20060241289A1.
Like-named read-outs stand apart in the source and are kept apart here. One block for each substance: values may come before it.

Assays:
[1] = target: TSH receptor coated onto plastic tubes or ELISA plate wells (RSR Ltd) / detergent solubilised TSH receptor; assay: 125I-TSH on TSHR coated tubes, buffer only
[2] = target: TSH receptor coated onto plastic tubes (UniProt P16473); assay: 125I-TSH binding to TSHR coated tubes, assay buffer only
[3] = target: TSH receptor coated onto plastic tubes or ELISA plate wells (RSR Ltd) / detergent solubilised TSH receptor; assay: 125I-TSH on TSHR coated tubes, assay buffer only
[4] = target: TSH receptor coated onto plastic tubes or ELISA plate wells (RSR Ltd) / detergent solubilised TSH receptor; assay: 125I-TSH on TSHR coated tubes, buffer only; remark: listed apart in the source
[5] = target: TSH receptor coated onto plastic tubes or ELISA plate wells (RSR Ltd) / detergent solubilised TSH receptor; assay: 125I-TSH on TSHR coated tubes, healthy blood donor serum pool only
[6] = target: TSH receptor coated onto plastic tubes (UniProt P16473); assay: 125I-TSH binding to TSHR coated tubes, assay buffer only; remark: listed apart in the source
[7] = target: TSH receptor coated onto plastic tubes or ELISA plate wells (RSR Ltd) / detergent solubilised TSH receptor; assay: 125I-TSH on TSHR coated tubes, healthy blood donor serum pool only; remark: listed apart in the source
[8] = target: hTSH receptor expressed on CHO cells (human) (UniProt P16473); assay: cell-based or functional assay
[9] = target: TSH receptor coated onto plastic tubes (UniProt P16473); assay: TSHR coated tubes; 90/672 at 2 U/L; competitor 125I-9D33
[10] = target: TSH receptor coated onto plastic tubes (UniProt P16473); assay: TSHR coated tubes; 90/672 at 40 U/L; competitor 125I-9D33
[11] = target: TSH receptor coated onto plastic tubes (UniProt P16473); assay: TSHR coated tubes; 90/672 at 8 U/L; competitor 125I-9D33
[12] = target: TSH receptor coated onto plastic tubes (UniProt P16473); assay: TSHR coated tubes; 90/672 at 2 U/L; competitor 125I-TSH
[13] = target: TSH receptor coated onto plastic tubes (UniProt P16473); assay: TSHR coated tubes; 90/672 at 1 U/L; competitor 125I-TSH
[14] = target: TSH receptor coated onto plastic tubes (UniProt P16473); assay: TSHR coated tubes; 90/672 at 40 U/L; competitor 125I-TSH
[15] = target: TSH receptor coated onto plastic tubes (UniProt P16473); assay: TSHR coated tubes; 90/672 at 1 U/L; competitor 125I-9D33
[16] = target: TSH receptor coated onto plastic tubes (UniProt P16473); assay: TSHR coated tubes; 90/672 at 8 U/L; competitor 125I-TSH
[17] = target: TSH receptor coated onto plastic tubes or ELISA plate wells (RSR Ltd) / detergent solubilised TSH receptor; assay: Scatchard analysis, 125I-Fab on TSH receptor coated tubes
[18] = target: TSH receptor coated onto plastic tubes or ELISA plate wells (RSR Ltd) / detergent solubilised TSH receptor; assay: 125I-TSH on TSHR coated tubes, sample diluted in serum
[19] = target: TSH receptor coated onto plastic tubes or ELISA plate wells (RSR Ltd) / detergent solubilised TSH receptor; assay: 125I-TSH on TSHR coated tubes, sample diluted in assay buffer
[20] = target: TSH receptor coated onto plastic tubes or ELISA plate wells (RSR Ltd) / detergent solubilised TSH receptor; assay: inhibition of 125I-TSH binding, mean of serum and assay buffer

Substance: NIBSC 90/672
Mean cyclic AMP per well; NIBSC 90/672 0.1 units/L (pmols per well) [8]: 1.09 | Mean cyclic AMP per well; NIBSC 90/672 0.3 units/L (pmols per well) [8]: 1.49 | Mean cyclic AMP per well; NIBSC 90/672 1.0 units/L (pmols per well) [8]: 3.52 | Mean cyclic AMP per well; NIBSC 90/672 3.0 units/L (pmols per well) [8]: 8.16

Substance: human TSH (from UniProt P01215 25-116; P01222 21-132) (ligand)
stimulation of cyclic AMP production in CHO cells transfected with the TSH receptor [8]: 10 ng/mL

Continued, values first:

% of total cpm bound [1]: 16.3% | % 125I-TSH binding [2]: 11.1% | % binding [3]: 12.1% | % inhibition [3]: 0% | % of total cpm bound [4]: 14.7% | % of total cpm bound [5]: 14.9% | % 125I-TSH binding [6]: 11.5% | % of total cpm bound [7]: 14.7%
Substance: 125I-labelled TSH (ligand)

125I-9D33 bound (% total counts added) [9]: 11% | inhibition of 125I-9D33 binding (%) [9]: 28% | 125I-9D33 bound (% total counts added) [10]: 4.1% | inhibition of 125I-9D33 binding (%) [10]: 72% | 125I-9D33 bound (% total counts added) [11]: 7.1% | inhibition of 125I-9D33 binding (%) [11]: 52% | inhibition of 125I-TSH binding (%) [12]: 23% | inhibition of 125I-TSH binding (%) [13]: 12% | inhibition of 125I-TSH binding (%) [14]: 92% | 125I-9D33 bound (% total counts added) [15]: 13% | inhibition of 125I-9D33 binding (%) [15]: 10% | inhibition of 125I-TSH binding (%) [16]: 68%
Substance: NIBSC 90/672 (International Standard for thyroid stimulating antibody)

Ka [17]: 4.5e+10 M⁻¹ | % inhibition [18]: 36% | mean units/mg (NIBSC 90/672) [18]: 288 units/mg | mean units/mg (NIBSC 90/672) [19]: 309 units/mg | units/mg (NIBSC 90/672) ([19]; Fab at 3 ng/mL): 265 units/mg | units/mg (NIBSC 90/672) ([19]; Fab at 10 ng/mL): 291 units/mg | units/mg (NIBSC 90/672) ([19]; Fab at 30 ng/mL): 372 units/mg | Units/mg (NIBSC 90/672), inhibition of TSH binding assay [20]: 300 Units/mg | Units/nmole (NIBSC 90/672), inhibition of TSH binding assay [20]: 15 Units/nmole
Substance: hMAb TSHR1 Fab
